{"source": "patent US20130011909A1", "about": "“METHODS AND COMPOSITION TO ENHANCE PRODUCTION OF FULLY FUNCTIONAL P-GLYCOPROTEIN IN PICHIA PASTORIS” (TEXAS TECH UNIVERSITY SYSTEM, priority 2011, published 2013)", "key": {"[1]": {"test_system": "S. cerevisiae strain JPY201", "experiment": "Mating assay (a-factor export, diploid formation)", "type": "cell-based", "conditions": "sterile ste6Δ strain JPY201, tester DC17", "method": "(§1) FK506 resistance and mating assays were as previously described with the following modifications. To measure FK506-resistant growth, overnight cultures were grown in uracil-deficient medium, diluted to an (OD600 of 0.05, seeded into sterile 96 well plates in triplicate and grown in YPD medium at 30° C. in the absence or presence of FK506, valinomycin [12, 33], or doxorubicin. OD600 was measured at 2 hour intervals for 30 hours in a microplate reader (Benchmark Plus, BioRad) after vigorous mixing. Drugs were dissolved in dimethylsulfoxide and diluted into the plate medium such that the final concentration of solvent was ≦1%. For mating assays, mass populations were diluted to OD600 of 0.6, and 0.75 ml were spotted with 0.25 ml of α-type tester strain DC17 (OD600 of 1.2) onto a 22 mm 0.45 μm HA filter (Millipore, cat no SAIJ791H5), placed on a YPD plate and incubated for 4 hours, then plated in duplicate on minimal and uracil-deficient medium as described. Mating frequency was calculated as the ratio of transformed cells forming diploid colonies on selective medium to the total number of cells introduced in the assay. Statistical analysis of the functional assays was done with the SigmaPlot 11 software using One Way ANOV A with the pairwise multiple comparison Tukey test."}, "[2]": {"test_system": "S. cerevisiae strain JPY201", "experiment": "Drug-resistant growth of Pgp transformants (FK506, valinomycin, doxorubicin)", "type": "cell-based", "method": "as §1"}, "[3]": {"experiment": "Differential scanning calorimetry, thermal unfolding", "type": "physicochemical", "method": "Calorimetry was routinely carried out in 20 mM HEPES, pH 7.6, 50 mM NaCl, 10% glycerol, 0.1% DDM and 5.5 mM DTT in 0.13 mL cells at a heating rate of 2 K/minutes with the VP-Capillary DSC System (MicroCal Inc., GE Healthcare). An external pressure of 2.0 atm was maintained to prevent possible degassing of the solutions on heating. Thermal unfolding was irreversible, as determined by sample cooling and reheating. Heat capacity curves were corrected for instrumental baseline obtained by buffer scans. Separated DSC scans were conducted for buffer containing 1% lipids and no transition was detected in the temperature range of thermal unfolding for the proteins in presence of lipids. DSC data were analyzed with the MicroCal Origin software to obtain the unfolding temperature (Tm) and the total unfolding enthalpy (ΔHcal)."}, "[4]": {"molecular_target": "T1, Opti-Pgp (Mus musculus, UniProt P21447, N83Q/N87Q/N90Q)", "T1 construct": "made in house; host or cells: Pichia pastoris KM71H", "T1 sequence (P21447 whole entry N83Q/N87Q/N90Q)": "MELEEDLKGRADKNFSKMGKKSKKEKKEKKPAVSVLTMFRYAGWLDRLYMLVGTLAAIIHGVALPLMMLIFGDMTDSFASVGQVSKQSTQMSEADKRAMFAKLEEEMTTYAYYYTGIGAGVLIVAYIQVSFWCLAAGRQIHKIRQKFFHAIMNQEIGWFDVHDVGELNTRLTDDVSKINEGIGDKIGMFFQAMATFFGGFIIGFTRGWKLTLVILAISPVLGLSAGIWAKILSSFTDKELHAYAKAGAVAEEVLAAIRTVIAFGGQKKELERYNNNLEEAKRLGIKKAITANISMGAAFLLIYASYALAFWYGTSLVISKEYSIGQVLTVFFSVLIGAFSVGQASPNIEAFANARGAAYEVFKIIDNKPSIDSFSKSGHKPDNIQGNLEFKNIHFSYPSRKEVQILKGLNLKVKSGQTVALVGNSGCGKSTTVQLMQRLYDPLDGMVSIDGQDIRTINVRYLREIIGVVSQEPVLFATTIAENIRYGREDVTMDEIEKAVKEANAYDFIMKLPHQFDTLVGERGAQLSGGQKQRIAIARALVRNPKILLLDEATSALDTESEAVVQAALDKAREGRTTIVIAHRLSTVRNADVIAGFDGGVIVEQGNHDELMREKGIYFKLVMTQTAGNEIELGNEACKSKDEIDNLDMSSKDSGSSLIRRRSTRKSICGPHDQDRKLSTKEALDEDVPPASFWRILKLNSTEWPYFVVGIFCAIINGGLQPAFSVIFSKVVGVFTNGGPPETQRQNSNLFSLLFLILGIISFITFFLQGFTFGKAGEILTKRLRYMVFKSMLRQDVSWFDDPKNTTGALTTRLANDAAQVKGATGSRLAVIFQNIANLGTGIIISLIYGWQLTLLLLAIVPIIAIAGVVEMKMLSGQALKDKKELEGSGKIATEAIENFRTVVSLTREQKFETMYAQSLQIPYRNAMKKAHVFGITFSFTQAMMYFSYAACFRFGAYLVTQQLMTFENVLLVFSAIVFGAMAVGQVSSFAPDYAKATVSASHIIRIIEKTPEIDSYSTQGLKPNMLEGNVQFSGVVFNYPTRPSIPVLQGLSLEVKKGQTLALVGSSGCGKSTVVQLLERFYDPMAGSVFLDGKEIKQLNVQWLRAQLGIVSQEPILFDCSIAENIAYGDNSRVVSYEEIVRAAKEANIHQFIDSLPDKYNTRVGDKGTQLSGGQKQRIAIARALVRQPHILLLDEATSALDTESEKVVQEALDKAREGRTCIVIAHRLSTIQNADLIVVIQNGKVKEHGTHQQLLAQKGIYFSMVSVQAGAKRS", "experiment": "ATPase assay of purified, lipid-activated Pgp (coupled ATP-regenerating assay)", "type": "biochemical", "method": "(§2) Purified Pgp in 0.1% DDM was mixed with 10 mM DTT on ice for 5 min, then activated with 1% E. coli polar lipids for 15 minutes at room temperature followed by 30 s bath sonication as described. ATPase activity was measured at 37° C. in a coupled assay utilizing an ATP-regenerating system. For each well of a 96-well plate, 10 μl (5 μg) of activated wild type (WT) Pgp or Opti-Pgp was added to 200 μl of assay medium containing 10 mM ATP, 12 mM MgSO4, 3 mM phosphoenolpyruvate, 0.3 mM NADH, 0.5 mg/ml of lactate dehydrogenase, 0.5 mg/ml of pyruvate kinase, 0.1 mM EGTA and 40 mM Tris-HCl, pH 7.4. Verapamil was added from stock solution in water; cyclosporine A was added from concentrated stock in DMSO such that the final DMSO concentration was 2%; control samples contained 2% DMSO. […] ATPase activity was calculated as described previously and plotted with SigmaPlot 10 (Systat Software, Inc.)."}, "[5]": {"molecular_target": "gene-optimized P-glycoprotein (mouse opti-MDR3 gene product) with C-terminal His6-tag (mouse) (UniProt P21447)", "experiment": "cell-based or functional assay"}, "[6]": {"molecular_target": "wild-type P-glycoprotein (mouse MDR3 gene product) with C-terminal His6-tag (mouse) (UniProt P21447)", "experiment": "cell-based or functional assay"}, "[7]": {"molecular_target": "T2, WT-Pgp (Mus musculus, UniProt P21447, N83Q/N87Q/N90Q)", "T2 construct": "Arrows indicate the position of the full-length proteins (Pgp); made in house; host or cells: Pichia pastoris KM71H", "T2 sequence (P21447 whole entry N83Q/N87Q/N90Q)": "as above", "experiment": "ATPase assay of purified, lipid-activated Pgp (coupled ATP-regenerating assay)", "type": "biochemical", "conditions": "150 μM verapamil, 1% E. coli lipids, 37° C., n > 30", "method": "as §2"}}, "data": [{"substance": "Opti-Pgp: P-glycoprotein (mouse MDR3) expressed from codon-optimized opti-MDR3 gene, primary sequence identical to wild-type, C-terminal His6 tag", "values": [{"measurement": "Mating frequency relative to WT-Pgp controls", "setting": "[1]", "value": "about 1.5 fold"}, {"measurement": "Growth resistance compared with WT-Pgp transformants", "setting": "[2]; FK506 25 μg/ml", "value": "no difference"}, {"measurement": "Growth resistance compared with WT-Pgp transformants", "setting": "[2]; FK506 50 or 75 μg/ml", "value": "grew significantly faster"}, {"measurement": "Growth resistance compared with WT-Pgp transformants", "setting": "[2]; doxorubicin 45 μM", "value": "grew significantly faster"}, {"measurement": "Growth resistance compared with WT-Pgp transformants", "setting": "[2]; doxorubicin 15 and 30 μM", "value": "no significant difference"}, {"measurement": "Time after inoculation to enter log-phase growth", "setting": "[2]; in the presence of FK506", "value": "approximately 22 hours"}, {"measurement": "Time to reach stationary phase", "setting": "[2]; in the presence of FK506", "value": "approximately 28 hours"}, {"measurement": "Growth compared with WT-Pgp transformants", "setting": "[2]; valinomycin 80 μg/ml, data not shown", "value": "as good as or better than"}, {"measurement": "Tm (intermediate)", "setting": "[3]; 0.13% lipid", "value": 48, "unit": "°C"}, {"measurement": "Unfolding temperature T1", "setting": "[3]; 1% lipid", "value": "49.3 ± 1.0", "unit": "°C"}, {"measurement": "Unfolding temperature T2", "setting": "[3]; 1% lipid", "value": "58.7 ± 0.5", "unit": "°C"}, {"measurement": "ΔHcal", "setting": "[3]; 1% lipid", "value": "567 ± 33", "unit": "kcal/mol"}, {"measurement": "Unfolding temperature T1", "setting": "[3]; no added lipids, 0.1% DDM", "value": "42.7 ± 1.7", "unit": "°C"}, {"measurement": "ΔHcal", "setting": "[3]; no added lipids, 0.1% DDM", "value": "264 ± 67", "unit": "kcal/mol"}, {"measurement": "verapamil-stimulated ATPase activity", "setting": "[4]; 0.13% lipid", "value": 40, "unit": "%"}, {"measurement": "verapamil-stimulated ATPase activity", "setting": "[4]; 0.52% lipid", "value": 80, "unit": "%"}, {"measurement": "ATP hydrolysis rate enhancement over wild-type Pgp", "setting": "[4]; Opti-Pgp versus WT-Pgp", "value": 1.2, "unit": "fold"}, {"measurement": "verapamil-stimulated ATPase activity", "setting": "[4]; absence of lipids", "value": 11, "unit": "%"}, {"measurement": "Maximal ATPase activity", "setting": "[4]; purified Opti-Pgp, 150 μM verapamil, 1% E. coli lipids, 37° C., n > 30", "value": "2.1 ± 0.28", "unit": "µmol/min/mg"}, {"measurement": "Maximum turnover number", "setting": "[4]; purified Opti-Pgp, as printed in summary", "value": "2.1 ± 0.28", "unit": "µmol/min/mg"}]}, {"substance": "cyclosporine A (peptide)", "values": [{"measurement": "Half-maximal inhibition by cyclosporine A (µM) of verapamil-stimulated ATPase activity", "setting": "[5]", "value": 1.1, "unit": "µM"}, {"measurement": "Half-maximal inhibition by cyclosporine A (µM) of verapamil-stimulated ATPase activity", "setting": "[6]", "value": 0.98, "unit": "µM"}]}, {"substance": "WT-Pgp: wild-type mouse MDR3 P-glycoprotein expressed from the native gene, comparison protein", "values": [{"measurement": "Unfolding temperature T1", "setting": "[3]; 1% lipid", "value": "50.4 ± 0.9", "unit": "°C"}, {"measurement": "Unfolding temperature T2", "setting": "[3]; 1% lipid", "value": "57.8 ± 0.1", "unit": "°C"}, {"measurement": "ΔHcal", "setting": "[3]; 1% lipid", "value": "518 ± 4.2", "unit": "kcal/mol"}, {"measurement": "Unfolding temperature T1", "setting": "[3]; no added lipids, 0.1% DDM", "value": "43.0 ± 1.6", "unit": "°C"}, {"measurement": "ΔHcal", "setting": "[3]; no added lipids, 0.1% DDM", "value": "264 ± 87", "unit": "kcal/mol"}, {"measurement": "Maximal ATPase activity", "setting": "[7]", "value": "1.8 ± 0.24", "unit": "µmol/min/mg"}]}]}
